Laboratory results as given in article PMC10776578, “Epstein-Barr virus-driven B cell lymphoma mediated by a direct LMP1-TRAF6 complex” (Nature Communications, 2024).

B1: R392A (protein, UniProt Q9Y4K3 1-522, looked up, variant R392A)
TNF receptor-associated …: MSLLNCENSCGSSQSESDCCVAMASSCSAVTKDDSVGGTASTGNLSSSFMEEIQGYDVEFDPPLESKYECPICLMALREAVQTPCGHRFCKACIIKSIRDAGHKCPVDNEILLENQLFPDNFAKREILSLMVKCPNEGCLHKMELRHLEDHQAHCEFALMDCPQCQRPFQKFHINIHILKDCPRRQVSCDNCAASMAFEDKEIHDQNCPLANVICEYCNTILIREQMPNHYDLDCPTAPIPCTFSTFGCHEKMQRNHLARHLQENTQSHMRMLAQAVHSLSVIPDSGYISEVRNFQETIHQLEGRLVRQDHQIRELTAKMETQSMYVSELKRTIRTLEDKVAEIEAQQCNGIYIWKIGNFGMHLKCQEEEKPVVIHSPGFYTGKPGYKLCMALHLQLPTAQRCANYISLFVHTMQGEYDSHLPWPFQGTIRLTILDQSEAPVRQNHEEIMDAKPELLAFQRPTIPRNPKGFGYVTFMHLEALRQRTFIKDDTLLVRCEVSTRFDMGSLRREGFQPRSTDAGV
B2: F471A (protein, UniProt Q9Y4K3 1-522, looked up, variant F471A)
TNF receptor-associated …: MSLLNCENSCGSSQSESDCCVAMASSCSAVTKDDSVGGTASTGNLSSSFMEEIQGYDVEFDPPLESKYECPICLMALREAVQTPCGHRFCKACIIKSIRDAGHKCPVDNEILLENQLFPDNFAKREILSLMVKCPNEGCLHKMELRHLEDHQAHCEFALMDCPQCQRPFQKFHINIHILKDCPRRQVSCDNCAASMAFEDKEIHDQNCPLANVICEYCNTILIREQMPNHYDLDCPTAPIPCTFSTFGCHEKMQRNHLARHLQENTQSHMRMLAQAVHSLSVIPDSGYISEVRNFQETIHQLEGRLVRQDHQIRELTAKMETQSMYVSELKRTIRTLEDKVAEIEAQQCNGIYIWKIGNFGMHLKCQEEEKPVVIHSPGFYTGKPGYKLCMRLHLQLPTAQRCANYISLFVHTMQGEYDSHLPWPFQGTIRLTILDQSEAPVRQNHEEIMDAKPELLAFQRPTIPRNPKGAGYVTFMHLEALRQRTFIKDDTLLVRCEVSTRFDMGSLRREGFQPRSTDAGV

Legend:
[1] = test system: GST-LMP1_181-386; assay: AlphaScreen PPI, TRAF6 mutants binding to LMP1; parameters: species or system Epstein-Barr virus; TRAF6 binding to LMP1 (AlphaScreen), mean: unit not given here; conditions: for effect of TRAF6 mutation on binding to LMP1 (in words): AlphaScreen PPI; for TRAF6 binding to LMP1 (AlphaScreen), mean / TRAF6 binding to LMP1 (AlphaScreen): Figure 2a; for TRAF6 binding to LMP1 (AlphaScreen), mean: mean of n = 3
Experimental: (§1) Fig. 2 LMP1 binds to the receptor-interacting surface of TRAF6. a Mutations within the receptor-interacting surface of TRAF6 affect binding to LMP1. The TRAF6 mutants R392A, K469A, F471A, and Y473A were tested LMP1 in AlphaScreen PPI experiments with GST-LMP1_181-386. Data are mean values ± SD of three independent experiments. Statistics: one-way ANOVA. b TRAF6 R392A differentiates between CD40 and LMP1/RANK. AlphaScreen PPI experiments with GST-CD40_216-277. Data are mean values ± SD of three independent experiments. […] AlphaScreen PPI experiments with GST-RANK314-355. Data are mean values ± SD of four independent experiments. Statistics: one-way ANOVA. d TRAF6 mutants that fail to interact with LMP1 in PPI assays are also unable to bind cellular LMP1. HEK293 cells were co-transfected with HA-LMP1 and the indicated Flag-TRAF6 mutants. Flag-TRAF6 was immunoprecipitated (IP) via its Flag-tag and coprecipitated HA-LMP1 was detected on immunoblots by an α-HA antibody. Uncropped blots in Supplementary Fig. 6b. For statistical analysis LMP1 signals were digitalized and quantified (graph). Data are mean values ± SD of three independent experiments. […] TRAF6 recruitment is dependent on amino acids 371 − 386 of LMP1 (small panel). Confocal microscopy images show representative cells of three independent experiments. Quantitative data are mean values ± SD of ten randomly selected cells per transfection of one representative experiment (graph). Scale bars: 10 µm. Statistics: one-way ANOVA. p-values: *p ≤ 0.05, **p ≤ 0.01, ***p ≤ 0.001, ****p ≤ 0.0001. Source data and exact p-values in the Source Data file.
(§2) AlphaScreen experiments were performed in 96- or 384-well plates (Perkin Elmer, OptiPlate). In both assay formats, His-TRAF and GST-LMP1, GST-CD40, or GST-RANK proteins were incubated together in 40 µL of PBS (protein concentrations were calculated to the final reaction volume of 60 µL) supplemented with 0.5% BSA (Sigma, #A7030) and 0.1% Tween-20 (AppliChem, #A4974), for 1 h at room temperature (RT). If not indicated otherwise, standard protein concentrations were 300 nM for His-TRAF proteins and 100 nM for GST-LMP1 proteins. Ni-NTA-acceptor (Perkin Elmer, #6760619 C) and GST-acceptor (Perkin Elmer, # 6765300) beads were added each to a final concentration of 1–4 µg per mL in a final reaction volume of 60 µL and incubated for 1 h at RT in the dark. AlphaScreen PPI signals were measured in a CLARIOstar reader (BMG Labtech GmbH).

[2] = test system: HA-LMP1; assay: Coimmunoprecipitation of HA-LMP1 with Flag-TRAF6 mutants in HEK293 cells; assay type: cell-based, Epstein-Barr virus; conditions: for coprecipitated HA-LMP1 signal (densitometry), mean: HEK293, mean of n = 3; for interaction of TRAF6 mutants with LMP1 in HEK293 cells (in words): coimmunoprecipitation
Experimental: Immunoblotting was essentially performed as described. Proteins were detected on nitrocellulose membranes (Bio-Rad, #1620115) using the following primary antibodies: α−6*His-tag (clone 4A4 or 2F12, source: antibody facility of the Helmholtz Center Munich, hybridoma supernatants were used at a 1:10 dilution)[75], α-TRAF6 (H-274, Santa Cruz Biotech., #sc-7221, used at 1:1000), α-HA-tag (12CA5, Sigma-Aldrich, #11583816001, used at 0.4 µg per mL), α-IκBα (C-21, Santa Cruz Biotech., #sc-371, used at 1:500) and α-Tubulin (B-5-1-2, Santa Cruz Biotech., #sc-23948, used at 1:500). Horseradish peroxidase-coupled antibodies were used as secondary antibodies (Cell Signalling Technology, #7074 or #7076, respectively, both used at 1:5000). ECL signals were captured on X-ray films (Agfa Healthcare) and quantified by densitometry using the ImageJ software. Uncropped scans of immunoblots indicating molecular weights are provided in Supplementary Fig. 6.
HEK293 cells were transfected with 1 µg of pRK5-Flag TRAF6 plasmids, 1 µg of pCMV-HA-LMP1 and 6 µg of pRK5 per 10 cm cell culture dish using PolyFect Transfection Reagent (Qiagen, #301107) in RPMI without supplements. Cells were incubated with the plasmid transfection mix for 4 h before the medium was changed to RPMI full medium. After 24 h, the cells were lysed in NP40-lysis buffer (50 mM HEPES pH 7.5, 150 mM NaCl, 5 mM EDTA, 0.5 mM sodium orthovanadate, 0.5 mM PMSF, 0.5 mM sodium molybdate, and cOmplete protease inhibitor cocktail). Lysates were cleared by centrifugation at 15000 x g for 10 min at 4 °C, and the protein concentration was adjusted to 1 mg per mL. For immunoprecipitation 4 mL of lysate was incubated with the α-Flag antibody 6F7 (Sigma-Aldrich, #F3165; covalently coupled to protein-G-Sepharose) for 1 h at 4 °C. The beads were pelleted at 15000 x g for 30 seconds at 4 °C, washed twice with NP40-lysis buffer, and analyzed by immunoblotting.

[3] = test system: GST-CD40_216-277; assay: AlphaScreen PPI, TRAF6 mutants binding to CD40; parameters: species or system human; TRAF6 binding to CD40 (AlphaScreen), mean: unit not given here; conditions: for effect of TRAF6 mutation on binding to CD40 (in words): AlphaScreen PPI; for TRAF6 binding to CD40 (AlphaScreen), mean / TRAF6 binding to CD40 (AlphaScreen): Figure 2b; for TRAF6 binding to CD40 (AlphaScreen), mean: mean of n = 3
Experimental: as §1, §2

[4] = test system: NF-κB in TRAF6^-/- MEFs; assay: NF-κB reporter assay, TRAF6 rescue of CTAR2 signalling; assay type: cell-based, mouse; parameters: unit not given here
Experimental: TRAF6^−/− cells (6 × 10^4) were seeded per well of a 6-well plate in DMEM full medium the day before transfection. Cells were transfected with 2 µg of the indicated pCMV-HA-LMP1 plasmids together with 0.5 µg of pRK5-Flag-TRAF6 plasmids or empty vector, 0.05 µg of NF-κB luciferase reporter 3xκB-Luc and 0.2 µg of pPGK-Renilla housekeeping control reporter using the PolyFect transfection reagent (Qiagen)[33]. After 4 h the transfection mix was removed, and the cells were kept overnight in DMEM full medium. NF-κB reporter and Renilla control activities were measured with the Dual-Luciferase reporter assay kit (Promega, #E1910) following the manufacturer’s instructions. Samples of each lysate were analyzed for LMP1 and TRAF6 expression by immunoblotting.

[5] = relative to mean wt 100, replicate 1
[6] = with A204xAxA (CTAR2-specific signalling), replicate 1
[7] = with A204xAxA/∆371-386 (inactive null control), replicate 1
[8] = with A204xAxA/∆371-386, mean of n = 5
[9] = with A204xAxA/∆371-386, replicate 2
[10] = with A204xAxA/∆371-386, replicate 3
[11] = with A204xAxA/∆371-386, replicate 4
[12] = with A204xAxA/∆371-386, replicate 5

Molecule	effect of TRAF6 mutation on binding to LMP1 (in words) [1]	TRAF6 binding to LMP1 (AlphaScreen), mean [1]	TRAF6 binding to LMP1 (AlphaScreen) [1, 5]	TRAF6 binding to LMP1 (AlphaScreen) ([1]; replicate 2)	TRAF6 binding to LMP1 (AlphaScreen) ([1]; replicate 3)	coprecipitated HA-LMP1 signal (densitometry), mean [2]	interaction of TRAF6 mutants with LMP1 in HEK293 cells (in words) [2]	effect of TRAF6 mutation on binding to CD40 (in words) [3]	TRAF6 binding to CD40 (AlphaScreen), mean [3]	TRAF6 binding to CD40 (AlphaScreen) [3, 5]	TRAF6 binding to CD40 (AlphaScreen) ([3]; replicate 2)	TRAF6 binding to CD40 (AlphaScreen) ([3]; replicate 3)	NF-κB reporter activity [4, 6]	NF-κB reporter activity, mean ([4]; with A204xAxA, mean of n = 5)	NF-κB reporter activity ([4]; with A204xAxA, replicate 2)	NF-κB reporter activity ([4]; with A204xAxA, replicate 3)	NF-κB reporter activity ([4]; with A204xAxA, replicate 4)	NF-κB reporter activity ([4]; with A204xAxA, replicate 5)	NF-κB reporter activity [4, 7]	NF-κB reporter activity, mean [4, 8]	other results
B1	prevented the interaction of TRAF6 with LMP1 and RANK	4.615	2.0	6.0	5.9	2761976	abolished the TRAF6 interaction with LMP1	no impact on TRAF6 binding to CD40	85.62	56.3	84.0	116.7	29.9	25.57	20.3	24.4	30.5	22.7	23.3	17.45	NF-κB reporter activity [4, 9]: 12.6; NF-κB reporter activity [4, 10]: 15.1; NF-κB reporter activity [4, 11]: 21.7; NF-κB reporter activity [4, 12]: 14.7
B2	complete loss of TRAF6 binding	5.785	2.7	7.8	6.8	5862061	abolished the TRAF6 interaction with LMP1	complete loss of TRAF6 binding	0.6069	0.8	0.43	0.6	22.4	20.18	16.8	19.1	26.3	16.3	22.3	19.11	NF-κB reporter activity [4, 9]: 23.1; NF-κB reporter activity [4, 10]: 15.5; NF-κB reporter activity [4, 11]: 21.1; NF-κB reporter activity [4, 12]: 13.4
